Data on seven substances can be found in PMC8780415.

Common to all, as to assay: flow cytometry on cells
In general terms: In flow cytometry, cells or beads pass a laser one at a time.

Experiment [1] deals with Biotinylated Myr47 (myristoylated pre-S1 peptide). As to conditions: HEK293T cells transiently transfected; GFP+ gate; 10,000 cells; triplicate assays; mean and standard error; Myr47 binding examined at 4 °C; parent: est. 13; read off a plot.
For experiment [2], the target named is NTCP-GFP fusion protein (sodium taurocholate cotransporting polypeptide) (UniProt Q14973).
UniProt Q14973, sequence (Q14973 whole entry, the tested form may be a part): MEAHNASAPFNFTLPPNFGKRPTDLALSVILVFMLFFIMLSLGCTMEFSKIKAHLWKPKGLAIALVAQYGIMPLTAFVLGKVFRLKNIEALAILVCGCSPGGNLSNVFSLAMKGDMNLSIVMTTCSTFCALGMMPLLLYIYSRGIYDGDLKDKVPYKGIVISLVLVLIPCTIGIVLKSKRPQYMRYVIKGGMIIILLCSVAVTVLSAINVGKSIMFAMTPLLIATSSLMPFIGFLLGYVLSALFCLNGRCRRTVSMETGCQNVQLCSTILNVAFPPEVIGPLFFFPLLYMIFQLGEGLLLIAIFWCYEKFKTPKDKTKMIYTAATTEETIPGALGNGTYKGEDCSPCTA
Experiment [3] has as its target SR-B1-GFP fusion protein (scavenger receptor class B type 1) (UniProt Q8WTV0).
UniProt Q8WTV0, sequence (Q8WTV0 whole entry, the tested form may be a part): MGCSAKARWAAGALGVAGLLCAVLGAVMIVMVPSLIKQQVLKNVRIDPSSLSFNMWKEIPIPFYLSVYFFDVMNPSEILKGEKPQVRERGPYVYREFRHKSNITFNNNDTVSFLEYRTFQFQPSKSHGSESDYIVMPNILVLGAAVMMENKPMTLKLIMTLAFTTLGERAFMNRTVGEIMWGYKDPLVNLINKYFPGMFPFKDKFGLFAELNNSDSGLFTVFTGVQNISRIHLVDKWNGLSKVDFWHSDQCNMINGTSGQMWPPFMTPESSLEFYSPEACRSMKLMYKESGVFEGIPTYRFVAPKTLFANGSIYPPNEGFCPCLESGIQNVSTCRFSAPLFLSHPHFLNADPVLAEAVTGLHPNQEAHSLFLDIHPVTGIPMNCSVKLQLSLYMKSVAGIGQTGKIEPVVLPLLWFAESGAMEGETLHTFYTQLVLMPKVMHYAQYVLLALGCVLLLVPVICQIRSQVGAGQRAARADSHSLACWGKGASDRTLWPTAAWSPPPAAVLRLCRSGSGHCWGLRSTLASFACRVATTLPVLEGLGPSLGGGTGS

Regarding “SR-B1-GFP fusion protein (scavenger receptor class B type 1) (from UniProt Q8WTV0) K151A”, the response in experiment [1] was determined as 10 FI × 10^3.
Consider “Biotinylated Myr47 (myristoylated pre-S1 peptide)”, for which the fold binding over GFP control cells in experiment [2] was 3.4 fold; in experiment [3], 2.8 fold.
On to “SR-B1-GFP fusion protein (scavenger receptor class B type 1) (from UniProt Q8WTV0) M441A; L448A; L455A”, for which the response in experiment [1] is 10 FI × 10^3.
“Yeast-derived nanoparticles containing L protein (bio-nanocapsules, BNCs)” displayed a fold binding over GFP control cells in experiment [3] of 9.2 fold.
In the case of “SR-B1-GFP fusion protein (scavenger receptor class B type 1) (from UniProt Q8WTV0) K156A”, in experiment [1], the response was 5.8 FI × 10^3.
On the same count and under the same terms, for “SR-B1-GFP fusion protein (scavenger receptor class B type 1) (from UniProt Q8WTV0) T175A” the value was 5.7 FI × 10^3.
The same measure, in the same setting: for “SR-B1-GFP fusion protein (scavenger receptor class B type 1) (from UniProt Q8WTV0) S112F” the value was 5.3 FI × 10^3.
